Measurements taken from FireProtDB (doi:10.1110/ps.03220403).

Settings: pH 8, Thermal, CD, Bis-Tris propane ammonium acetate 0.05 M 0.05 M, reversible: No, whole UniProt chain shown

| Protein | Tm (Trichocladium griseum) [°C] | Tm (Hypocrea jecorina) [°C] |
| --- | --- | --- |
| wild type, Q8NJY3 (protein) MLKSALLLGAAAVSVQSASIPTIPANLEPRQIRSLCELYGYWSGNGYELLNNLWGKDTATSGWQCTYLDGTNNGGIQWSTAWEWQGAPDNVKSYPYVGKQIQRGRKISDINSMRTSVSWTYDRTDIRANVAYDVFTARDPDHPNWGGDYELMIWLARYGGIYPIGTFHSQVNLAGRTWDLWTGYNGNMRVYSFLPPSGDIRDFSCDIKDFFNYLERNHGYPAREQNLIVYQVGTECFTGGPARFTCRDFRADLW | 68.7 |  |
| wild type, O00095 (protein) MKFLQVLPALIPAALAQTSCDQWATFTGNGYTVSNNLWGASAGSGFGCVTAVSLSGGASWHADWQWSGGQNNVKSYQNSQIAIPQKRTVNSISSMPTTASWSYSGSNIRANVAYDLFTAANPNHVTYSGDYELMIWLGKYGDIGPIGSSQGTVNVGGQSWTLYYGYNGAMQVYSFVAQTNTTNYSGDVKNFFNYLRDNKGYNAAGQYVLSYQFGTEPFTGSGTLNVASWTASIN |  | 54.4 |
